This series concerns the target VEGF-165 (UniProt P15692-4 27-191). Put plainly: magnetic bead capture with fluorescent complementary probe (fluorescence rebound); 50 uM KCl, 1 mM Mg2+, pH 7.0; linear 0.2-2.0 ng/mL VEGF in plasma, LOD 0.0445 ng/mL; 1X TBSE: 10 mM Tris, 0.05 mM EDTA, 100 mM NaCl, 1 mM MgCl2, 50 uM KCl, pH 7.0; 0.1 uM aptamer (95 C 3 min, cooled), 25 C, 45 min. The conditions noted are these: protein: commercial; chain copies: 2; label: 5'-biotin; G-quadruplex.

Sequence of VEGF-165 (P15692 other isoform, or with tags, fused parts or gaps): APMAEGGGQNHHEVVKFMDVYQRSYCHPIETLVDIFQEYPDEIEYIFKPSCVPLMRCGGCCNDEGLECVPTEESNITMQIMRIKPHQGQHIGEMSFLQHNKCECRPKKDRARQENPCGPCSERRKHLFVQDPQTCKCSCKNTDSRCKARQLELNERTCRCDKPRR

Take TGTGGGGGTGGACGGGCCGGGTAGA (structured_DNA) [VEGF aptamer (APT)]: the binding result is “binds”.
